Test results taken from patent US20240158515A1 (Regeneron, published 2024).

Assays:
[1] = molecular target: T1, human FGFR3c expressed with a C-terminal myc-myc-hexahistidine tag (hFGFR3c.mmH) (human, UniProt P22607 23-375); assay: SPR Biacore, mAb captured on anti-hFc, 25C; row marked NB
T1 construct: also called REGN3155; monomeric human FGFR3c

[2] = molecular target: full length human FGFR3b S249C/V557L on BaF3 cells (human, UniProt P22607 23-808); assay: cell-based or functional assay
[3] = molecular target: full length human FGFR3b S249C/V557M on BaF3 cells (human, UniProt P22607 23-808); assay: cell-based or functional assay
[4] = molecular target: T2, full length human FGFR3b S249C on BaF3 cells (BAF3/FGFR3b_S249C, ACL11986) (human, UniProt P22607 23-808); assay: cell-based or functional assay
[5] = molecular target: T3, cynomolgus FGFR3b expressed with a C-terminal myc-myc-hexahistidine tag (mfFGFR3b.mmH) (cynomolgus); assay: SPR Biacore, mAb captured on anti-hFc, 25C
T3 construct: also called REGN3521; mf FGFR3b ecto (R357G)(E23-G377;R357G).mmH
T3 chain: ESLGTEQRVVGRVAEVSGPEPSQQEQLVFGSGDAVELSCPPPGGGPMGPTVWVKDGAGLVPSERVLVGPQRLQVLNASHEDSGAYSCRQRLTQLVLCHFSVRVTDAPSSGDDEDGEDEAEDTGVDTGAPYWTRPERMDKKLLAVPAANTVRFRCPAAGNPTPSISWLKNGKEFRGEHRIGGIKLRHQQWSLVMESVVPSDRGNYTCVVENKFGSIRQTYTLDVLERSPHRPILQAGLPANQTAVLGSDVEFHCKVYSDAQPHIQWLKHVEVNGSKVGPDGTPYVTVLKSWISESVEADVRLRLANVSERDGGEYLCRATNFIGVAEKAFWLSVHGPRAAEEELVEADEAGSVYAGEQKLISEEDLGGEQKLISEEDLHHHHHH

[6] = molecular target: full length human FGFR3b on BaF3 cells (BAF3/FGFR3b, ACL11991) (human, UniProt P22607 23-808); assay: cell-based or functional assay
[7] = molecular target: T2, full length human FGFR3b S249C on BaF3 …; assay: cell-based or functional assay; remark: listed apart in the source
[8] = molecular target: T4, human FGFR3b expressed with a C-terminal murine Fc tag (hFGFR3b.mFc) (human); assay: competition ELISA: 4 nM hFGFR3b-mFc binding to plate-coated hFGF acidic
T4 construct: called dimeric; also called REGN3153; dimeric human FGFR3b
T4 chain: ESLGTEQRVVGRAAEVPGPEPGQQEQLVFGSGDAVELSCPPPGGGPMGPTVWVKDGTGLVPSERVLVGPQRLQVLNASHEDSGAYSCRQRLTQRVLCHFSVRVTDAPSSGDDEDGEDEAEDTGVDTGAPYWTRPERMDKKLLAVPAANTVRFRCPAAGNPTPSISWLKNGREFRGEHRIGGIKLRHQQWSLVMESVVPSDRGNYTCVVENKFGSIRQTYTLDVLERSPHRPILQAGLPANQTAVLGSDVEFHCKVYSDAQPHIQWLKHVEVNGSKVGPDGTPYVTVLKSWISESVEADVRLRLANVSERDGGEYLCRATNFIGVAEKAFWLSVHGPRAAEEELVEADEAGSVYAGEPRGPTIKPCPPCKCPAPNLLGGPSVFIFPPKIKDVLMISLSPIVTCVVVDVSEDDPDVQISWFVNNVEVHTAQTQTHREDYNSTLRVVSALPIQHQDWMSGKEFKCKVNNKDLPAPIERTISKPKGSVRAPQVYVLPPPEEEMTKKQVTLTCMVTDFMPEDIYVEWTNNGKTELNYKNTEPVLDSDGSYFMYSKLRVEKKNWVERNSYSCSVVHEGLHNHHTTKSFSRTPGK

B1: H4H30063P (antibody, human IgG4 S228P, kappa, V domains shown)
VH: QVQLQESGPGLVKPSETLSLTCTVSGDSINSYFWSWIRQLPGKELEWIGHIYSSGSTRYNPSLQSRVTISIDTSKNQFSLKLSSVTAADTAVYYCARGASAVDYWGQGTLVTVSS
VL: EIVLTQSPGTLSLSPGERATLSCRTSQSISSGYLAWYQQKPGQAPRLLIYGASRRATGIPDRFSGSGSGTDFTLTISRLEPEDFVVYYCQQYGSSPYTFGQGTKLEIKR
notes: HCVR 2, LCVR 10; also called REGN15684
In the case of B1, the “90 nM hFGFR3c.mmH Bind (RU)” value [1] is reported as -19.6 RU, the “IC50, growth of BaF3 cells expressing FGFR3 S249C/V557L (CellTiter-Glo)” value [2] is reported as 4.3 nM and the “IC50, growth of BaF3 cells expressing FGFR3 S249C/V557M (CellTiter-Glo)” value [3] is reported as 3.9 nM. For the same binder, the “IC50, growth of BaF3 cells expressing FGFR3 S249C (CellTiter-Glo)” value [4] was 1.36 nM, the “90 nM mfFGFR3b.mmH Bind (RU)” value [5] was 212 RU and the Kd [5] was 0.275 nM. The koff [5] was 4.21e-05 s⁻¹, the kon [5] was 153000 M⁻¹ s⁻¹ and the “t½” value [5] was 4.58 h. The “IC50 [M], BaF3 proliferation (CellTiter-Glo) with 1 nM FGF1 + 5 ug/ml heparin” value [6] was 6.06e-10 M, the “Max Blocking (%), BaF3 proliferation (CellTiter-Glo) with 1 nM FGF1 + 5 ug/ml heparin” value [6] was 98% and the “IC50 [M], BaF3 proliferation (CellTiter-Glo) with 1 nM FGF1 + 5 ug/ml heparin” value [7] was 5.08e-10 M. For the same binder, the “Max Blocking (%), BaF3 proliferation (CellTiter-Glo) with 1 nM FGF1 + 5 ug/ml heparin” value [7] was 93.4%, the “% Blocking at 200 nM mAb” value [8] was 95% and the IC50 [8] was 2 nM.
